In patent US20190309059A1 (SHANGHAI PHARMAEXPLORER, published 2019):

B1: 28A2E11 (lead antibody, mouse hybridoma) (antibody, V domains shown)
VH: EVQLQQSGAELVKPGASVKLSCTASGFNIKDYYMHWVKQRTEQGLEWIGRIDPEDGETKYAPKFHDKATLTADTSSNTAYLQFSSLASEDTAVYYCTRYDYYGPFAYWGQGTLVTVSA
VL: QAVVTQESVLTTSPGETVTLTCRSSTGAVTTSNYANWVQEKPDHLFTGLIGGTNNRAPGVPARFSGSLIGDKAALTITGAQTEDEAIYFCALWYINHFIFGSGTKVTVL
notes: Mouse monoclonal antibody purified from hybridoma supernatant on Protein G
B2: 29D9H8 (lead antibody, mouse hybridoma) (antibody, V domains shown)
VH: QVQLQQSGAELVRPGASVTLSCKASGYTFTDYEMHWVKQTPVHGLEWIGGIDPETGGTASNQKFKGKAILTADKSSSTAYMELRSLTSEDSAVYYCTSGDYFGGGPFAYWGQGTLVTVSA
VL: DIKMTQSPSSMYASLGERVTITCKASQDINSYLSWFQQKPGKSPKTLIYRANRLVDGVPSRFSGSGSGQDYSLTISSLDYEDMGIYYCLQYDEFPYTFGGGTKLEIK
notes: as for B1

What was measured:
[1] = molecular target: his-labeled human IL-13 (immunogen A) (human) (UniProt P35225); assay: ELISA, biotin-immunogen A; antibody at 13.33 nM
[2] = molecular target: his-labeled human IL-13 (immunogen A) (human) (UniProt P35225); assay: FACS blocking, biotin-IL-13 on IL-13Ra1/IL-4Ra HEK293 cells; antibody at 0.27 nM
[3] = molecular target: his-labeled human IL-13 (immunogen A) (human) (UniProt P35225); assay: FACS blocking, biotin-IL-13 on IL-13Ra1/IL-4Ra HEK293 cells; antibody at 0.002 nM
[4] = molecular target: his-labeled human IL-13 (immunogen A) (human) (UniProt P35225); assay: FACS blocking, biotin-IL-13 on IL-13Ra1/IL-4Ra HEK293 cells; antibody at 1.33 nM
[5] = molecular target: his-labeled human IL-13 (immunogen A) (human) (UniProt P35225); assay: FACS blocking, biotin-IL-13 on IL-13Ra2 HEK293 cells; antibody at 33.33 nM
[6] = molecular target: his-labeled human IL-13 (immunogen A) (human) (UniProt P35225); assay: FACS blocking, biotin-IL-13 on IL-13Ra2 HEK293 cells; antibody at 0.002 nM
[7] = molecular target: his-labeled human IL-13 (immunogen A) (human) (UniProt P35225); assay: FACS blocking, biotin-IL-13 on IL-13Ra2 HEK293 cells; antibody at 0.27 nM
[8] = molecular target: his-labeled human IL-13 (immunogen A) (human) (UniProt P35225); assay: FACS blocking, biotin-IL-13 on IL-13Ra2 HEK293 cells; antibody at 0.05 nM
[9] = molecular target: cynomolgus IL-13 (purchased from sino biological) (cynomolgus) (UniProt Q0PW92); assay: ELISA, cynomolgus IL-13; antibody at 0.021 nM
[10] = molecular target: his-labeled human IL-13 (immunogen A) (human) (UniProt P35225); assay: FACS blocking, biotin-IL-13 on IL-13Ra2 HEK293 cells; antibody at 1.33 nM
[11] = molecular target: his-labeled human IL-13 (immunogen A) (human) (UniProt P35225); assay: FACS blocking, biotin-IL-13 on IL-13Ra2 HEK293 cells; antibody at 0.01 nM
[12] = molecular target: his-labeled human IL-13 (immunogen A) (human) (UniProt P35225); assay: ELISA, biotin-immunogen A; antibody at 0.11 nM
[13] = molecular target: cynomolgus IL-13 (purchased from sino biological) (cynomolgus) (UniProt Q0PW92); assay: ELISA, cynomolgus IL-13; antibody at 2.67 nM
[14] = molecular target: his-labeled human IL-13 (immunogen A) (human) (UniProt P35225); assay: FACS blocking, biotin-IL-13 on IL-13Ra1/IL-4Ra HEK293 cells; antibody at 33.33 nM
[15] = molecular target: cynomolgus IL-13 (purchased from sino biological) (cynomolgus) (UniProt Q0PW92); assay: ELISA, cynomolgus IL-13; antibody at 0.004 nM
[16] = molecular target: his-labeled human IL-13 (immunogen A) (human) (UniProt P35225); assay: FACS blocking, biotin-IL-13 on IL-13Ra1/IL-4Ra HEK293 cells; antibody at 0.05 nM
[17] = molecular target: his-labeled human IL-13 (immunogen A) (human) (UniProt P35225); assay: FACS blocking, biotin-IL-13 on IL-13Ra1/IL-4Ra HEK293 cells; antibody at 166.67 nM
[18] = molecular target: his-labeled human IL-13 (immunogen A) (human) (UniProt P35225); assay: ELISA, biotin-immunogen A; antibody at 0.53 nM
[19] = molecular target: his-labeled human IL-13 (immunogen A) (human) (UniProt P35225); assay: FACS blocking, biotin-IL-13 on IL-13Ra2 HEK293 cells; antibody at 6.67 nM
[20] = molecular target: his-labeled human IL-13 (immunogen A) (human) (UniProt P35225); assay: FACS blocking, biotin-IL-13 on IL-13Ra1/IL-4Ra HEK293 cells; antibody at 6.67 nM
[21] = molecular target: his-labeled human IL-13 (immunogen A) (human) (UniProt P35225); assay: FACS blocking, biotin-IL-13 on IL-13Ra2 HEK293 cells; antibody at 166.67 nM
[22] = molecular target: his-labeled human IL-13 (immunogen A) (human) (UniProt P35225); assay: ELISA, biotin-immunogen A; antibody at 2.67 nM
[23] = molecular target: cynomolgus IL-13 (purchased from sino biological) (cynomolgus) (UniProt Q0PW92); assay: ELISA, cynomolgus IL-13; antibody at 0.53 nM
[24] = molecular target: his-labeled human IL-13 (immunogen A) (human) (UniProt P35225); assay: FACS blocking, biotin-IL-13 on IL-13Ra1/IL-4Ra HEK293 cells; antibody at 0.01 nM
[25] = molecular target: his-labeled human IL-13 (immunogen A) (human) (UniProt P35225); assay: cell-based or functional assay

Sequence of cynomolgus IL-13 (purchased from sino biological) (cynomolgus) (Q0PW92 entry or part of it): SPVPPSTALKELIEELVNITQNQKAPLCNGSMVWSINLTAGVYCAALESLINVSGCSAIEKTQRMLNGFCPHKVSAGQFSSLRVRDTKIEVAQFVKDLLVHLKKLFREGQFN

| Binder | OD450 nm [1] | mean fluorescence intensity [2] | mean fluorescence intensity [3] | mean fluorescence intensity [4] | mean fluorescence intensity [5] | mean fluorescence intensity [6] | mean fluorescence intensity [7] | mean fluorescence intensity [8] | OD450 nm [9] | mean fluorescence intensity [10] | mean fluorescence intensity [11] | OD450 nm [12] | OD450 nm [13] | mean fluorescence intensity [14] | OD450 nm [15] | mean fluorescence intensity [16] | mean fluorescence intensity [17] | OD450 nm [18] | mean fluorescence intensity [19] | mean fluorescence intensity [20] | further results |
| --- | --- | --- | --- | --- | --- | --- | --- | --- | --- | --- | --- | --- | --- | --- | --- | --- | --- | --- | --- | --- | --- |
| B1 | 1.74 | 64.2 | 74.7 | 39.6 | 56.6 | 76.5 | 72.1 | 76.9 | 0.14 | 60.1 | 79.7 | 0.74 | 1.35 | 27.2 | 0.08 | 71.5 | 24.6 | 1.32 | 55.9 | 28.8 | mean fluorescence intensity [21]: 53.3; OD450 nm [22]: 1.69; OD450 nm [23]: 0.83; mean fluorescence intensity [24]: 76.2; TARC (pg/mL), A549 cells + IL-13 5 ng/mL + TNFα; antibody at 0.001 nM [25]: 1850 pg/mL; TARC (pg/mL), A549 cells + IL-13 5 ng/mL + TNFα; antibody at 0.004 nM [25]: 1700 pg/mL; TARC (pg/mL), A549 cells + IL-13 5 ng/mL + TNFα; antibody at 0.021 nM [25]: 1590 pg/mL; TARC (pg/mL), A549 cells + IL-13 5 ng/mL + TNFα; antibody at 0.11 nM [25]: 1360 pg/mL; TARC (pg/mL), A549 cells + IL-13 5 ng/mL + TNFα; antibody at 0.5 nM [25]: 601 pg/mL; TARC (pg/mL), A549 cells + IL-13 5 ng/mL + TNFα; antibody at 2.7 nM [25]: 118 pg/mL; TARC (pg/mL), A549 cells + IL-13 5 ng/mL + TNFα; antibody at 13.3 nM [25]: 51 pg/mL; TARC (pg/mL), A549 cells + IL-13 5 ng/mL + TNFα; antibody at 66.7 nM [25]: 56 pg/mL |
| B2 | 1.6 | 45.3 | 75.3 | 24 | 21.5 | 76.3 | 45.4 | 67.6 | 0.56 | 32.3 | 74.6 | 0.85 | 2.36 | 15.9 | 0.19 | 68.5 | 14.8 | 1.4 | 23.6 | 16.6 | mean fluorescence intensity [21]: 20.5; OD450 nm [22]: 1.61; OD450 nm [23]: 2.05; mean fluorescence intensity [24]: 74.2; TARC (pg/mL), A549 cells + IL-13 5 ng/mL + TNFα; antibody at 0.001 nM [25]: 1910 pg/mL; TARC (pg/mL), A549 cells + IL-13 5 ng/mL + TNFα; antibody at 0.004 nM [25]: 1720 pg/mL; TARC (pg/mL), A549 cells + IL-13 5 ng/mL + TNFα; antibody at 0.021 nM [25]: 1600 pg/mL; TARC (pg/mL), A549 cells + IL-13 5 ng/mL + TNFα; antibody at 0.11 nM [25]: 1300 pg/mL; TARC (pg/mL), A549 cells + IL-13 5 ng/mL + TNFα; antibody at 0.5 nM [25]: 653 pg/mL; TARC (pg/mL), A549 cells + IL-13 5 ng/mL + TNFα; antibody at 2.7 nM [25]: 146 pg/mL; TARC (pg/mL), A549 cells + IL-13 5 ng/mL + TNFα; antibody at 13.3 nM [25]: 53 pg/mL; TARC (pg/mL), A549 cells + IL-13 5 ng/mL + TNFα; antibody at 66.7 nM [25]: 42 pg/mL |
